Assay results: patent publication EP3831849A1 (LamKap Bio beta AG, dated 2021)
Numbering of substitutions follows the chain as printed. Read-outs that look alike come from different tables or passages of the source.

T1: human CEACAM5 expressed on MKN-45 wt cells (human, UniProt P06731 35-702)
T1 sequence: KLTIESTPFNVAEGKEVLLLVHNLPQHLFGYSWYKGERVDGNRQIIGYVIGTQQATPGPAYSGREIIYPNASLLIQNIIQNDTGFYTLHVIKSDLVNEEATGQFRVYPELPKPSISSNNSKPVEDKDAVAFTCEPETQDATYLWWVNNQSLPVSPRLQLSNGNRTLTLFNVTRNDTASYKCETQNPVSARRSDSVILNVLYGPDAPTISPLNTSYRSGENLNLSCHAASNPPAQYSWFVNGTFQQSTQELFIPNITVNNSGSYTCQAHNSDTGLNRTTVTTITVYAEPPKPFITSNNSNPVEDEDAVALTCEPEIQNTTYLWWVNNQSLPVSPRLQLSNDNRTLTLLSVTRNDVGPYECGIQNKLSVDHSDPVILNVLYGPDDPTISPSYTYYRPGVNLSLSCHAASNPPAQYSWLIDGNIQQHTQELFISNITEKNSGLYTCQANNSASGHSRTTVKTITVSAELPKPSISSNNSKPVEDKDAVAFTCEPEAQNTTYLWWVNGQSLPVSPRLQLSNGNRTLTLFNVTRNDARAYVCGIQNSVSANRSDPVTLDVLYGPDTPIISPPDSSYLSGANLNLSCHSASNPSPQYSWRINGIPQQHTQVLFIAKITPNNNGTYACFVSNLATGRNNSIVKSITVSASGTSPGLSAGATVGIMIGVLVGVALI

T2: biotinylated recombinant human CEACAM5 (human, UniProt P06731 35-685, biotin on the C-terminal Avitag)
T2 construct: also called CD66e; not shown: C-terminal Avitag plus hexa-histidine tag, human Fc or mouse Fc
T2 sequence: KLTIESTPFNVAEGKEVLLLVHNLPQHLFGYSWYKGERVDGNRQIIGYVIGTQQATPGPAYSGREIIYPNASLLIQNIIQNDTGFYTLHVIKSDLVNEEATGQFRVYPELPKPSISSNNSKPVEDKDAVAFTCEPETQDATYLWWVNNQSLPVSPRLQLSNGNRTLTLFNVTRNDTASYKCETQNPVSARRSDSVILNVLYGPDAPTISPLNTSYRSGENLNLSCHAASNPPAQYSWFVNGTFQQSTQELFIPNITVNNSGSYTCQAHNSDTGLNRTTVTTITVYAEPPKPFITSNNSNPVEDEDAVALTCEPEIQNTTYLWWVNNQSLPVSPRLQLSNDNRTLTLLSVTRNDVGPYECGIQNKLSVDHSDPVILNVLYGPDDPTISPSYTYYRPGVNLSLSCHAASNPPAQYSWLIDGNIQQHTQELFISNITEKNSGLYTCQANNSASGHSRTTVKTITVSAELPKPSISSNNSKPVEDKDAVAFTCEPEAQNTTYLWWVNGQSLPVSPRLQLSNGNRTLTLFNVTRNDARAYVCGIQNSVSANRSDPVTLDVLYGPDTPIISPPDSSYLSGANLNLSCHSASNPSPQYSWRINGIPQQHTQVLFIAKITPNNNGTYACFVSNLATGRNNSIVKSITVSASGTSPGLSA

B1: K2AC54 (bispecific antibody, human IgG1, kappa, lambda)
heavy: not shown
light 1: QSVLTQPPSVSGAPGQRVTISCTGSSSNIHDVGYVHWYQQLPGTAPKLLIYGASGRPSGVPDRFSGSKSGTSASLAITGLQAEDEADYYCQSYDTRQVVPTPVFGGGTKLTVLGQPKAAPSVTLFPPSSEELQANKATLVCLISDFYPGAVTVAWKADSSPVKAGVETTTPSKQSNNKYAASSYLSLTPEQWKSHRSYSCQVTHEGSTVEKTVAPTECS
light 2: not shown
notes: 6 is full length
B2: K2AC52 (bispecific antibody, human IgG1, kappa, lambda)
heavy: not shown
light 1: B1 light 1 with R96K, Q97R, V98E, V99F
light 2: not shown
notes: 6 is full length
B3: K2AC53 (bispecific antibody, human IgG1, kappa, lambda)
heavy: not shown
light 1: B1 light 1 with T95G, Q97A, V99F
light 2: not shown
notes: 6 is full length
B4: K2AC55 (bispecific antibody, human IgG1, kappa, lambda)
heavy: not shown
light 1: B1 light 1 with R96S, Q97A, V99F
light 2: not shown
notes: 6 is full length
B5: K2AC56 (bispecific antibody, human IgG1, kappa, lambda)
heavy: not shown
light 1: B1 light 1 with H30I, D31N, V32N, G33S, G52A, A53P, G55N, R96T, Q97G, V99M
light 2: not shown
notes: 6 is full length
B6: K2AC57 (bispecific antibody, human IgG1, kappa, lambda)
heavy: not shown
light 1: B1 light 1 with H30I, D31N, V32N, G33S, G52A, A53P, G55N, Q97F
light 2: not shown
notes: 6 is full length
B7: K2AC49 (bispecific antibody, human IgG1, kappa, lambda)
heavy: not shown
light 1: QSVLTQPPSVSAAPGQKVTISCSGSSSNIFDSGVSWYQQLPGTAPKLLIYNHNERPSGIPDRFSGSKSGTSATLGITGLQTGDEADYYCGTWDFPPSRFVFGGGTKLTVLGQPKAAPSVTLFPPSSEELQANKATLVCLISDFYPGAVTVAWKADSSPVKAGVETTTPSKQSNNKYAASSYLSLTPEQWKSHRSYSCQVTHEGSTVEKTVAPTECS
light 2: not shown
B8: K2AC50 (bispecific antibody, human IgG1, kappa, lambda)
heavy: not shown
light 1: QSALTQPASVSGSPGQSITISCTGTSSDVYEFRLVSWYQQHPGKAPKLMIYFDSLRPSGVSNRFSGSKSGNTASLTISGLQAEDEADYYCSSWDKFGYAFNSVFGGGTKLTVLGQPKAAPSVTLFPPSSEELQANKATLVCLISDFYPGAVTVAWKADSSPVKAGVETTTPSKQSNNKYAASSYLSLTPEQWKSHRSYSCQVTHEGSTVEKTVAPTECS
light 2: not shown
B9: AC49 (antibody, human IgG1, lambda, V domains shown)
VH: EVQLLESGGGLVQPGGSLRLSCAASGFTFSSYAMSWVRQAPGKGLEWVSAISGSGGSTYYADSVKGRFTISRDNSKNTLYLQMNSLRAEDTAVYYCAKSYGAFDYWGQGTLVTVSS
VL: QSVLTQPPSVSAAPGQKVTISCSGSSSNIFDSGVSWYQQLPGTAPKLLIYNHNERPSGIPDRFSGSKSGTSATLGITGLQTGDEADYYCGTWDFPPSRFVFGGGTKLTVLG
notes: Bivalent IgG1 mAb; 6 carries the IgG1 Fc; also called CEACAM5/CEACAM6 mAb AC49
B10: AC50 (antibody, human IgG1, lambda, V domains shown)
VH: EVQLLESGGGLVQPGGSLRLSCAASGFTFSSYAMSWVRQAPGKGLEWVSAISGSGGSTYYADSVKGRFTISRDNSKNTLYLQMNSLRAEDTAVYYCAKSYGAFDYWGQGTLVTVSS
VL: QSALTQPASVSGSPGQSITISCTGTSSDVYEFRLVSWYQQHPGKAPKLMIYFDSLRPSGVSNRFSGSKSGNTASLTISGLQAEDEADYYCSSWDKFGYAFNSVFGGGTKLTVLG
notes: Bivalent IgG1 mAb; 6 carries the IgG1 Fc; also called CEACAM5/CEACAM6 mAb AC50
B11: SM3E (antibody, V domains shown)
VH: QVKLEQSGAEVVKPGASVKLSCKASGFNIKDSYMHWLRQGPGQRLEWIGWIDPENGDTEYAPKFQGKATFTTDTSANTAYLGLSSLRPEDTAVYYCNEGTPTGPYYFDYWGQGTLVTVSS
VL: ENVLTQSPSSMSVSVGDRVNIACSASSSVPYMHWLQQKPGKSPKLLIYLTSNLASGVPSRFSGSGSGTDYSLTISSVQPEDAATYYCQQRSSYPLTFGGGTKLEIK
notes: also called anti-CEACAM5 antibody SM3E
B12: SAR (antibody, V domains shown)
VH: EVQLVESGGGLVQPGGSLRLSCAASGFVFSSYDMSWVRQAPGKGLEWVSYISSGGGITYYADSVKGRFTISRDNSKNTLYLQMNSLRAEDTAVYYCAAHYFGSSGPFAYWGQGTLVTVSS
VL: DIQMTQSPSSLSASVGDRVTITCRASENIFSYLAWYQQKPGKAPKLLIYNTRTLQSGVPSRFSGSGSGTDFTLTISSLQPEDFATYYCQHHYGTPFTFGQGTKLEIK
notes: also called mAb derived from Mab2_VLg5VHg2
B13: AC57 (antibody, human IgG1, lambda, V domains shown)
VH: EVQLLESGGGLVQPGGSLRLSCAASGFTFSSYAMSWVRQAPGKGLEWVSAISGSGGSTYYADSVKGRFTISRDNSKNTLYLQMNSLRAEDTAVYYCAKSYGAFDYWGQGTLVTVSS
VL: QSVLTQPPSVSGAPGQRVTISCTGSSSNIINNSYVHWYQQLPGTAPKLLIYAPSNRPSGVPDRFSGSKSGTSASLAITGLQAEDEADYYCQSYDTRFVVPTPVFGGGTKLTVLG
notes: Bivalent IgG1 mAb; 6 carries the IgG1 Fc
B14: AC58 (antibody, human IgG1, lambda, V domains shown)
VH: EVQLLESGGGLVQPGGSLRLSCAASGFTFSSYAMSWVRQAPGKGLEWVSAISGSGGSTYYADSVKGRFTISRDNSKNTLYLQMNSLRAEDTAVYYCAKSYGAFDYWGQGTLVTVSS
VL: QSVLTQPPSVSGAPGQRVTISCTGSSSNIGVAHDVHWYQQLPGTAPKLLIYDYSERPSGVPDRFSGSKSGTSASLAITGLQAEDEADYYCQSWDNGPNGLVWVFGGGTKLTVLG
notes: Bivalent IgG1 mAb derived from AC21 by lead optimization; 6 carries the IgG1 Fc)
B15: AC59 (antibody, human IgG1, lambda, V domains shown)
VH: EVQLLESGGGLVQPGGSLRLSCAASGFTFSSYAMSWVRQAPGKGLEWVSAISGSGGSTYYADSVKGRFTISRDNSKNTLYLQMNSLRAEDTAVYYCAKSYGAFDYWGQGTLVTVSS
VL: B14 VL with G96S, P97E, V101I, W102Y
notes: as for B14
B16: K2AC41 (bispecific antibody, human IgG1, kappa, lambda)
heavy: not shown
light 1: DIQMTQSPSSLSASVGDRVTITCQASQEIAATLNWYQQKPGKAPKLLIYNYSTLETGVPSRFSGSGSGTDFTFTISSLQPEDIATYYCQQVGLNPENTTFGGGTKLTVLGQPKAAPSVTLFPPSSEELQANKATLVCLISDFYPGAVTVAWKADSSPVKAGVETTTPSKQSNNKYAASSYLSLTPEQWKSHRSYSCQVTHEGSTVEKTVAPTECS
light 2: not shown
notes: 6 is full length; CEACAM arm light chain hybrid (VK + lambda CL), CD47 arm (K2) fully kappa
B17: K2AC42 (bispecific antibody, human IgG1, kappa, lambda)
heavy: not shown
light 1: B16 light 1 with E28R, A31R, Y51F, T53A, N94D, E96N, N97L
light 2: not shown
notes: 6 is full length; CEACAM arm light chain hybrid, CD47 arm fully kappa
B18: K2AC43 (bispecific antibody, human IgG1, kappa, lambda)
heavy: not shown
light 1: B16 light 1 with E28N, A30P, A31R, L33I, N50D, Y51I, T53N, N97L
light 2: not shown
notes: as for B17
B19: AC41K2 H-CL1 (bispecific antibody, human IgG1, kappa, lambda)
heavy: not shown
light 1: not shown
light 2: DIQMTQSPSSLSASVGDRVTITCRASQSISSYLNWYQQKPGKAPKLLIYAASSLQSGVPSRFSGSGSGTDFTLTISSLQPEDFATYYCQQMHPRAPKTFGGGTKLTVLGQPKAAPSVTLFPPSSEELQANKATLVCLISDFYPGAVTVAWKADSSPVKAGVETTTPSKQSNNKYAASSYLSLTPEQWKSHRSYSCQVTHEGSTVEKTVAPTECS
notes: CEACAM5xCD47 κλ body, IgG1, common heavy chain
B20: AC43K2 H-CL1 (bispecific antibody, human IgG1, kappa, lambda)
heavy: not shown
light 1: not shown
light 2: B19 light 2
notes: CEACAM5xCD47 κλ body, IgG1, common heavy chain; CEACAM arm light chain fully kappa, CD47 arm light chain hybrid

Columns and labels:
[1] = target: T1, human CEACAM5 expressed on MKN-45 wt …; assay: cell-based or functional assay
[2] = target: T1, human CEACAM5 expressed on MKN-45 wt …; assay: flow cytometry on MKN-45 wt cells (express CEACAM5 and CD47)
[3] = target: T3, human CD47 expressed at the surface of MKN45 cells (human, UniProt Q08722 19-323); assay: inhibition of SIRPα mouseFc binding to CD47 on MKN45 cells; imaging (CX5)
T3 construct: whole, on cells; also called IAP

[4] = target: T1, human CEACAM5 expressed on MKN-45 wt …; assay: cell-based or functional assay; remark: listed apart in the source
[5] = target: T2, biotinylated recombinant human CEACAM5; assay: ELISA; biotinylated recombinant protein on streptavidin plate; bivalent mAb titrated
[6] = target: T4, recombinant cynomolgus monkey CEACAM5 (cynomolgus monkey (macaca fascicularis)); assay: as above
T4 construct: also called cyno CEACAM5; cynomolgus CEACAM5

[7] = target: T2, biotinylated recombinant human CEACAM5; assay: as above; remark: listed apart in the source
[8] = target: T2, biotinylated recombinant human CEACAM5; assay: reference mAb in the competition ELISA on biotinylated human CEACAM5

T3 sequence (Q08722 19-323): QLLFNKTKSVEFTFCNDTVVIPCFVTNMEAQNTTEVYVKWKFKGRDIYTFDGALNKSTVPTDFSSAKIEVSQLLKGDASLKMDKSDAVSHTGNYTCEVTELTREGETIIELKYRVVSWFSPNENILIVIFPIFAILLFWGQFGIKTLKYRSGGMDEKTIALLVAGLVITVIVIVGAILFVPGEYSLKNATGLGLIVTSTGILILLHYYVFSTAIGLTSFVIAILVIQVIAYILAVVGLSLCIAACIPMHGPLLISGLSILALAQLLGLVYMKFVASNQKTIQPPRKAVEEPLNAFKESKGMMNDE

Binder | EC50 (µg/mL) of phagocytosis [1] [µg/mL] | EC50 [2] [nM] | Emax (MFI) [2] [MFI] | IC50 [3] [nM] | further results
B1 | 0.3 | 19 | 2.75e+06 | 0.16 | –
B2 | 1 | 219 | 3.3e+06 | 1.1 | –
B3 | 0.8 | 38 | 2.63e+06 | 0.3 | –
B4 | 0.9 | 221 | 3.9e+06 | 1.6 | –
B5 | 5 | 47 | 1.59e+06 | 2.8 | –
B6 | 1.6 | 91 | 2.26e+06 | 1.1 | –
B7 | – | – | – | – | EC50 (µg/mL) of phagocytosis [4]: 0.3 µg/mL
B8 | – | – | – | – | EC50 (µg/mL) of phagocytosis [4]: 0.07 µg/mL
B9 | – | – | – | – | EC50 [5]: 0.1 nM; EC50 [6]: 0.03 nM; EC50 [7]: 0.1 nM
B10 | – | – | – | – | EC50 [5]: 0.09 nM; EC50 [6]: 0.05 nM; EC50 [7]: 0.09 nM
B11 | – | – | – | – | binding result [8]: binds
B12 | – | – | – | – | binding result [8]: binds
B13 | – | – | – | – | EC50 [5]: 0.01 nM; EC50 [6]: 0.02 nM
B14 | – | – | – | – | EC50 [5]: 0.04 nM; EC50 [6]: 0.04 nM
B15 | – | – | – | – | EC50 [5]: 0.05 nM; EC50 [6]: 0.05 nM
B16 | – | 145 | 1.41e+06 | 3.7 | –
B17 | – | 123 | 1.52e+06 | 2.9 | –
B18 | – | 135 | 1.77e+06 | 3.9 | –
B19 | – | 146 | 1.52e+06 | 6.8 | –
B20 | – | 121 | 2.08e+06 | 3.2 | –
